Results from paper PMC9671922, “TOPOVIBL-REC114 interaction regulates meiotic DNA double-strand breaks” (Nature Communications, 2022).

T1: REC114^15–159 (REC114 PH domain) (mouse, UniProt Q9CWH4 15-159)
T1 construct: Expressed from pProEXHTb; His-tag cleaved with TEV protease; source: E. coli BL21-Gold (DE3), purified (Ni2+ resin, TEV cleavage, second Ni2+ column, Superdex 200)
T1 sequence (looked up): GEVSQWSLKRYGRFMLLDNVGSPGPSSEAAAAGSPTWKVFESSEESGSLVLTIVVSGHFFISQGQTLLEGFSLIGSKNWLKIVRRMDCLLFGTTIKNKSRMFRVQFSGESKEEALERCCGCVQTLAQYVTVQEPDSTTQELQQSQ


Target: T1, REC114^15–159 (REC114 PH domain)
Test: ITC; 25 °C, ITC200; 0.3-1.8 mM TOPOVIBL injected into 30-40 µM REC114 in the cell; 20 mM Tris pH 8.0, 100 mM NaCl, 5% glycerol, 5 mM β-mercaptoethanol; one-site model
Details: both partners purified

Kd [nM] | Binder
3300 | EDLWLQEVSNLSEWLNPG (also called TOPOVIBL peptide; TOPOVIBL C-terminal peptide) [TOPOVIBL^559–576 peptide]
1200 | 6xHis-TOPOVIBL C-terminal domain (CTD; 452–579) (domain or fragment, mouse, UniProt J3QMY9 452-579, looked up, Cloned in pProEXHTb; also called TOPOVIBL CTD; source: E. coli BL21Gold (DE3), purified (Ni-Chelating Sepharose, Superdex 200)) SCDTEQHLTPEKNISAQNTKDQHKNIAQEFPEESIGQAENKRPKRGSPNHGREESRVLGSARDRSPPKSATRDRELTEVSLTARGSQTQAAHGRAQAAEAASPAGGLEDLWLQEVSNLSEWLNPGHRS
